Reference: US20260250651, “CAS12 PROTEINS AND USES THEREOF” (GUANGZHOU REFORGENE MEDICINE CO., LTD., published 2026)

Columns and labels:
Cas12i-69 [1] = target: T1, Cas12i-69 (N295R,N260R,G705R); experiment: cell_activity; 293T indels; editing >15%
T1 chain: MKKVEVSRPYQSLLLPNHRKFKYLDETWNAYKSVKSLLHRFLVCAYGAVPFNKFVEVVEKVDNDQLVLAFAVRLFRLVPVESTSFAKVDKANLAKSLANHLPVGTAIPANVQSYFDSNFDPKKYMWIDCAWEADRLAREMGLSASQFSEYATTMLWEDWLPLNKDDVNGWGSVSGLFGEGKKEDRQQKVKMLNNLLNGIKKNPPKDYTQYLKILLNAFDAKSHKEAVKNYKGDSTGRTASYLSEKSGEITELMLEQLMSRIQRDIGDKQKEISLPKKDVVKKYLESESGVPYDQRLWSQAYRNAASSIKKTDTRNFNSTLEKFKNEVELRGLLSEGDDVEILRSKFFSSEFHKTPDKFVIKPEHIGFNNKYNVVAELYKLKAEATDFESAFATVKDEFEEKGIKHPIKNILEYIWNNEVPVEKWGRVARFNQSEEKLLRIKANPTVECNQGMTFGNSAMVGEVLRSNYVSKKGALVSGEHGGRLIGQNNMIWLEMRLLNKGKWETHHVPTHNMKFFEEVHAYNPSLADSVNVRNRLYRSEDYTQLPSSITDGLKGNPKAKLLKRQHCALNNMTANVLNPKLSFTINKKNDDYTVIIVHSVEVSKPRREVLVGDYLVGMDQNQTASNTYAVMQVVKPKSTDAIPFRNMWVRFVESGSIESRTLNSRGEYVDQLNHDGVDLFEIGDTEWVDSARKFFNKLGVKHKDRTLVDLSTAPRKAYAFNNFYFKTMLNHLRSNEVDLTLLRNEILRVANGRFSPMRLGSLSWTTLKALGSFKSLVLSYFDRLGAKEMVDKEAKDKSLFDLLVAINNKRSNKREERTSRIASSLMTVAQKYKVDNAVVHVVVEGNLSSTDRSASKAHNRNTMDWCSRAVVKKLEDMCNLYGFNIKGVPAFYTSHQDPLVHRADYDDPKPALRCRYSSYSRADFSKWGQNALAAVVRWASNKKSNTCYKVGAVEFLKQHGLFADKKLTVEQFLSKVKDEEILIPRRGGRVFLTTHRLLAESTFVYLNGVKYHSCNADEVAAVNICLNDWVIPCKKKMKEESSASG
Procedure: (§1) Plating: The 293T cell line was plated when the confluence reached 70-80%, and the number of cells seeded in a 24-well plate was 5*10\hat{ }5 cells/well.
(§2) Transfection: After 12-14 hours of plating, transfection was performed. 100 μl of Opti-MEM, 1.5 μl of PEI (Yisheng Bio, Polyethylenimine Linear (PEI) MW25000), 250 ng of the mutant clone plasmid from Example 2, and 250 ng of gRNA plasmid for targeting endogenous genes were added to each well of a 24-well plate. The mixture was incubated at room temperature for 20 minutes and then added to 293T cells for transfection. After transfection overnight, the medium was replaced with fresh medium and cultured for the next period.
(§3) DNA extraction, PCR amplification, and Sanger sequencing: After culturing for 72 hours, cells were washed with PBS, and then 100 μl of cell lysis buffer (Viagen, DirectPCR® Lysis Reagent (Cell)) was added for lysis to obtain a lysate containing genomic DNA. The genomic DNA was amplified in the region near the target sequence, and the PCR product was sent to a sequencing company for Sanger sequencing.

Cas12i-135 = target: T2, Cas12i-135 (N295R,N260R,G705R,L475R); experiment: cell_activity; 293T indels
T2 chain: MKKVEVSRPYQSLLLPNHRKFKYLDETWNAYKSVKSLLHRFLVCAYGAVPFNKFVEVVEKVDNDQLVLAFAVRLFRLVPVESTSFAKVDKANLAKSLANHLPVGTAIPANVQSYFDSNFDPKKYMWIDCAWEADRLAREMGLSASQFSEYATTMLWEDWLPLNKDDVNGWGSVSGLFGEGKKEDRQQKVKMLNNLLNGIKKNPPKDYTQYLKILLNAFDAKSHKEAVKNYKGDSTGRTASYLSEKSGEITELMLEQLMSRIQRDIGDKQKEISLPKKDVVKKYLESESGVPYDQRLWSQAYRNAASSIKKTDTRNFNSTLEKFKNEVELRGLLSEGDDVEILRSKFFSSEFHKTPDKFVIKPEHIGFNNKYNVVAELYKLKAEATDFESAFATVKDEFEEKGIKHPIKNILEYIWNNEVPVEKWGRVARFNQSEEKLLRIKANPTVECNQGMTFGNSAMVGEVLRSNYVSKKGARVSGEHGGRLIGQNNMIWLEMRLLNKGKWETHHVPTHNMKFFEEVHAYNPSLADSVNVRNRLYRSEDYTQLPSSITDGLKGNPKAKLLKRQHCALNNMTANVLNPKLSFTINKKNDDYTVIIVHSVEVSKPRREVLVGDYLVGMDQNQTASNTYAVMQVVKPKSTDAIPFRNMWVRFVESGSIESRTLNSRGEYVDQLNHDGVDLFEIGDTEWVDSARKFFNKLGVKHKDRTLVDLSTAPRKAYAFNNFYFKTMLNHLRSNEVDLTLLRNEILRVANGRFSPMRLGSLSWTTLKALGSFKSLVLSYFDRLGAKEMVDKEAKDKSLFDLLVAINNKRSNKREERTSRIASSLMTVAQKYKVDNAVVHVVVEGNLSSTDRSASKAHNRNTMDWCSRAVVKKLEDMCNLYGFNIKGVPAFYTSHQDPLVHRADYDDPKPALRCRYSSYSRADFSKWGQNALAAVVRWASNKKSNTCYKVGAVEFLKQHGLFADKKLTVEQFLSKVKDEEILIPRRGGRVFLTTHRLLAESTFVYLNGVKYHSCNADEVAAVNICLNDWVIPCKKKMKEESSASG
Procedure: as §1, §2, §3

Cas12i-69 [2] = target: T1, Cas12i-69; experiment: cell_activity; 293T indels; editing >3%
Procedure: as §1, §2, §3

B1: gRNA-TTR ; TTR target (ssRNA ; dsDNA)
RNA: AGAGAAUGUGUGCAUAGUCACACCAGUAAGAUUUGGUGUCUAU
DNA 1: CAGTAAGATTTGGTGTCTAT
DNA 2: ATAGACACCAAATCTTACTG
B1 was tested, and the indel editing efficiency (Cas12i-69 [1]) was 4.68 fold of wild type and the “relative indel editing efficiency” value (Cas12i-135) was 1.73 fold of Cas12i-69.

B2: gRNA-HBB ; HBB target (ssRNA ; dsDNA)
RNA: AGAGAAUGUGUGCAUAGUCACACUAUGCAGAAAUAUUGCUAUUGCCU
DNA 1: TATGCAGAAATATTGCTATTGCCT
DNA 2: AGGCAATAGCAATATTTCTGCATA
For B2, the “relative indel editing efficiency” value (Cas12i-69 [1]) was 1.58 fold of Cas12i-30.

B3: gRNA-HBG ; HBG target (ssRNA ; dsDNA)
RNA: AGAGAAUGUGUGCAUAGUCACACACAAGGCAAACUUGACCAAU
DNA 1: ACAAGGCAAACTTGACCAAT
DNA 2: ATTGGTCAAGTTTGCCTTGT
For B3, the “relative indel editing efficiency” value (Cas12i-69 [2]) was 1.27 fold of wild type.
